Reference: paper PMC3426363 (Pharmaceutical research, 2011)

Legend:
Format in all cases: in vitro ADME, human
UGT1A isoforms = conditions: across the UGT1A isoforms used (Tab.S1)
[1] = substrate: O=c1c(O)c(-c2ccc(O)cc2)oc2cc(O)cc(O)c12; assay: UGT1A8 glucuronidation kinetics of flavonols; conditions: other: UGT1A8, pH 6.5
[2] = substrate: O=c1c(O)c(-c2ccccc2)oc2cc(O)cc(O)c12; assay: UGT1A8 glucuronidation kinetics of flavonols; conditions: other: UGT1A8, pH 6.5
[3] = substrate: O=c1c(O)c(-c2ccccc2)oc2cc(O)ccc12; assay: UGT1A8 glucuronidation kinetics of flavonols; conditions: other: UGT1A8, pH 6.5
[4] = substrate: O=c1c(O)c(-c2ccc(O)cc2)oc2cc(O)cc(O)c12; assay: UGT1A7 glucuronidation kinetics of flavonols; conditions: other: UGT1A7, pH 6.5
[5] = substrate: O=c1c(O)c(-c2ccccc2)oc2cc(O)cc(O)c12; assay: UGT1A7 glucuronidation kinetics of flavonols; conditions: other: UGT1A7, pH 6.5
[6] = substrate: O=c1c(O)c(-c2ccccc2)oc2cc(O)ccc12; assay: UGT1A7 glucuronidation kinetics of flavonols; conditions: other: UGT1A7, pH 6.5
[7] = substrate: O=c1c(O)c(-c2ccc(O)cc2)oc2cc(O)cc(O)c12; assay: UGT1A10 glucuronidation kinetics of flavonols; conditions: other: UGT1A10, pH 6.5
[8] = substrate: O=c1c(O)c(-c2ccccc2)oc2cc(O)cc(O)c12; assay: UGT1A10 glucuronidation kinetics of flavonols; conditions: other: UGT1A10, pH 6.5
[9] = substrate: O=c1c(O)c(-c2ccccc2)oc2cc(O)ccc12; assay: UGT1A10 glucuronidation kinetics of flavonols; conditions: other: UGT1A10, pH 6.5
[10] = substrate: O=c1c(O)c(-c2ccc(O)cc2)oc2cc(O)cc(O)c12; assay: UGT1A9 glucuronidation kinetics of flavonols; conditions: other: UGT1A9, pH 6.5
[11] = substrate: O=c1c(O)c(-c2ccc(O)cc2)oc2cc(O)ccc12; assay: UGT1A9 glucuronidation kinetics of flavonols; conditions: other: UGT1A9, pH 6.5
[12] = substrate: O=c1c(O)c(-c2ccccc2)oc2cc(O)ccc12; assay: UGT1A9 glucuronidation kinetics of flavonols; conditions: other: UGT1A9, pH 6.5

COc1ccc2oc(-c3ccc(O)cc3)cc(=O)c2c1 [4’H6MF, 4'-hydroxy-6-methoxyflavone]
glucuronidation rate (UGT1A isoforms): ≤ 0.9 nmol/mg/min

O=c1cc(-c2ccccc2)oc2cccc(O)c12 [5HF, 5-hydroxyflavone]
glucuronidation rate (UGT1A isoforms): ≤ 0.9 nmol/mg/min

COc1cccc2oc(-c3ccc(O)cc3)cc(=O)c12 [4’H5MF, 4'-hydroxy-5-methoxyflavone]
glucuronidation rate (UGT1A isoforms): ≤ 0.9 nmol/mg/min

O=c1cc(-c2ccc(O)cc2)oc2cccc(O)c12 [5,4’DHF, 5,4'-dihydroxyflavone]
glucuronidation rate (UGT1A isoforms): ≤ 0.9 nmol/mg/min

COc1cc(O)c2c(=O)cc(-c3ccccc3)oc2c1 [5H7MF, 5-hydroxy-7-methoxyflavone]
glucuronidation rate (UGT1A isoforms): ≤ 0.9 nmol/mg/min

O=c1cc(-c2ccc(O)cc2)oc2ccccc12 [4’HF, 4'-hydroxyflavone]
glucuronidation rate (UGT1A isoforms): ≤ 0.9 nmol/mg/min

COc1ccc2c(=O)cc(-c3ccc(O)cc3)oc2c1 [4’H7MF, 4'-hydroxy-7-methoxyflavone]
glucuronidation rate (UGT1A isoforms): ≤ 0.9 nmol/mg/min

COc1cc(O)c2c(=O)cc(-c3ccc(O)cc3)oc2c1 [5,4’DH7MF, 5,4'-dihydroxy-7-methoxyflavone]
glucuronidation rate (UGT1A isoforms): ≤ 0.9 nmol/mg/min

B1: UGT1A8 (Homo sapiens) (protein)
chain: GKLLVVPMDGSHWFTMQSVVEKLILRGHEVVVVMPEVSWQLGKSLNCTVKTYSTSYTLEDLDREFMDFADAQWKAQVRSLFSLFLSSSNGFFNLFFSHCRSLFNDRKLVEYLKESSFDAVFLDPFDACGLIVAKYFSLPSVVFARGIACHYLEEGAQCPAPLSYVPRILLGFSDAMTFKERVRNHIMHLEEHLFCQYFSKNALEIASEILQTPVTAYDLYSHTSIWLLRTDFVLDYPKPVMPNMIFIGGINCHQGKPLPMEFEAYINASGEHGIVVFSLGSMVSEIPEKKAMAIADALGKIPQTVLWRYTGTRPSNLANNTILVKWLPQNDLLGHPMTRAFITHAGSHGVYESICNGVPMVMMPLFGDQMDNAKRMETKGAGVTLNVLEMTSEDLENALKAVINDKSYKENIMRLSSLHKDRPVEPLDLAVFWVEFVMRHKGAPHLRPAAHDLTWYQYHSLDVIGFLLAVVLTVAFITFKCCAYGYRKCLGKKGRVKKAHKSKTH
Km ([1]; formation of 3-O-glucuronide): 2.39 ± 0.47 µM
Vmax ([1]; formation of 3-O-glucuronide): 0.74 ± 0.04 nmol/mg/min
Vmax/Km ([1]; formation of 3-O-glucuronide): 310 µL/min/mg
Km ([1]; formation of 7-O-glucuronide): 6.77 ± 1.78 µM
Vmax ([1]; formation of 7-O-glucuronide): 1.01 ± 0.09 nmol/mg/min
Vmax/Km ([1]; formation of 7-O-glucuronide): 150 µL/min/mg
Km ([2]; formation of 3-O-glucuronide): 6.44 ± 1.28 µM
Vmax ([2]; formation of 3-O-glucuronide): 3.89 ± 0.47 nmol/mg/min
Vmax/Km ([2]; formation of 3-O-glucuronide): 600 µL/min/mg
Km ([2]; formation of 7-O-glucuronide): 4.88 ± 1.14 µM
Vmax ([2]; formation of 7-O-glucuronide): 0.79 ± 0.57 nmol/mg/min
Vmax/Km ([2]; formation of 7-O-glucuronide): 160 µL/min/mg
Km ([3]; formation of 3-O-glucuronide): 8.68 ± 1.21 µM
Vmax ([3]; formation of 3-O-glucuronide): 0.76 ± 0.04 nmol/mg/min
Vmax/Km ([3]; formation of 3-O-glucuronide): 90 µL/min/mg
Km ([3]; formation of 7-O-glucuronide): 27.32 ± 7.50 µM
Vmax ([3]; formation of 7-O-glucuronide): 0.65 ± 0.10 nmol/mg/min
Vmax/Km ([3]; formation of 7-O-glucuronide): 20 µL/min/mg

B2: UGT1A7 (Homo sapiens) (protein)
chain: GKLLVVPMDGSHWFTMQSVVEKLILRGHEVVVVMPEVSWQLGRSLNCTVKTYSTSYTLEDQDREFMVFADARWTAPLRSAFSLLTSSSNGIFDLFFSNCRSLFNDRKLVEYLKESCFDAVFLDPFDACGLIVAKYFSLPSVVFARGIFCHYLEEGAQCPAPLSYVPRLLLGFSDAMTFKERVWNHIMHLEEHLFCPYFFKNVLEIASEILQTPVTAYDLYSHTSIWLLRTDFVLEYPKPVMPNMIFIGGINCHQGKPVPMEFEAYINASGEHGIVVFSLGSMVSEIPEKKAMAIADALGKIPQTVLWRYTGTRPSNLANNTILVKWLPQNDLLGHPMTRAFITHAGSHGVYESICNGVPMVMMPLFGDQMDNAKRMETKGAGVTLNVLEMTSEDLENALKAVINDKSYKENIMRLSSLHKDRPVEPLDLAVFWVEFVMRHKGAPHLRPAAHDLTWYQYHSLDVIGFLLAVVLTVAFITFKCCAYGYRKCLGKKGRVKKAHKSKTH
Km ([4]; formation of 3-O-glucuronide): 1.46 ± 0.32 µM
Vmax ([4]; formation of 3-O-glucuronide): 0.77 ± 0.04 nmol/mg/min
Vmax/Km ([4]; formation of 3-O-glucuronide): 530 µL/min/mg
Km ([4]; formation of 7-O-glucuronide): 11.56 ± 2.91 µM
Vmax ([4]; formation of 7-O-glucuronide): 1.10 ± 0.11 nmol/mg/min
Vmax/Km ([4]; formation of 7-O-glucuronide): 100 µL/min/mg
Km ([5]; formation of 3-O-glucuronide): 0.82 ± 0.08 µM
Vmax ([5]; formation of 3-O-glucuronide): 3.35 ± 0.11 nmol/mg/min
Km ([5]; formation of 7-O-glucuronide): 21.43 ± 6.09 µM
Vmax ([5]; formation of 7-O-glucuronide): 2.46 ± 0.34 nmol/mg/min
Vmax/Km ([5]; formation of 7-O-glucuronide): 110 µL/min/mg
Km ([6]; formation of 3-O-glucuronide): 1.61 ± 0.14 µM
Vmax ([6]; formation of 3-O-glucuronide): 2.04 ± 0.07 nmol/mg/min
Vmax/Km ([6]; formation of 3-O-glucuronide): 1270 µL/min/mg
Km ([6]; formation of 7-O-glucuronide): 23.17 ± 6.96 µM
Vmax ([6]; formation of 7-O-glucuronide): 0.44 ± 0.07 nmol/mg/min
Vmax/Km ([6]; formation of 7-O-glucuronide): 20 µL/min/mg

B3: UGT1A10 (Homo sapiens) (protein)
chain: GKLLVVPMDGSHWFTMQSVVEKLILRGHEVVVVMPEVSWQLERSLNCTVKTYSTSYTLEDQNREFMVFAHAQWKAQAQSIFSLLMSSSSGFLDLFFSHCRSLFNDRKLVEYLKESSFDAVFLDPFDTCGLIVAKYFSLPSVVFTRGIFCHHLEEGAQCPAPLSYVPNDLLGFSDAMTFKERVWNHIVHLEDHLFCQYLFRNALEIASEILQTPVTAYDLYSHTSIWLLRTDFVLDYPKPVMPNMIFIGGINCHQGKPLPMEFEAYINASGEHGIVVFSLGSMVSEIPEKKAMAIADALGKIPQTVLWRYTGTRPSNLANNTILVKWLPQNDLLGHPMTRAFITHAGSHGVYESICNGVPMVMMPLFGDQMDNAKRMETKGAGVTLNVLEMTSEDLENALKAVINDKSYKENIMRLSSLHKDRPVEPLDLAVFWVEFVMRHKGAPHLRPAAHDLTWYQYHSLDVIGFLLAVVLTVAFITFKCCAYGYRKCLGKKGRVKKAHKSKTH
Km ([7]; formation of 3-O-glucuronide): 2.44 ± 0.55 µM
Vmax ([7]; formation of 3-O-glucuronide): 1.46 ± 0.16 nmol/mg/min
Vmax/Km ([7]; formation of 3-O-glucuronide): 600 µL/min/mg
Km ([7]; formation of 7-O-glucuronide): 3.34 ± 1.21 µM
Vmax ([7]; formation of 7-O-glucuronide): 1.10 ± 0.20 nmol/mg/min
Vmax/Km ([7]; formation of 7-O-glucuronide): 330 µL/min/mg
Km ([8]; formation of 3-O-glucuronide): 4.49 ± 0.61 µM
Vmax ([8]; formation of 3-O-glucuronide): 2.01 ± 0.14 nmol/mg/min
Vmax/Km ([8]; formation of 3-O-glucuronide): 450 µL/min/mg
Km ([8]; formation of 7-O-glucuronide): 3.96 ± 0.58 µM
Vmax ([8]; formation of 7-O-glucuronide): 0.77 ± 0.04 nmol/mg/min
Vmax/Km ([8]; formation of 7-O-glucuronide): 190 µL/min/mg
Km ([9]; formation of 3-O-glucuronide): 6.66 ± 0.66 µM
Vmax ([9]; formation of 3-O-glucuronide): 0.19 ± 0.01 nmol/mg/min
Vmax/Km ([9]; formation of 3-O-glucuronide): 30 µL/min/mg
Km ([9]; formation of 7-O-glucuronide): 8.74 ± 1.37 µM
Vmax ([9]; formation of 7-O-glucuronide): 0.26 ± 0.02 nmol/mg/min
Vmax/Km ([9]; formation of 7-O-glucuronide): 30 µL/min/mg

B4: UGT1A9 (Homo sapiens) (protein)
chain: GKLLVVPMDGSHWFTMRSVVEKLILRGHEVVVVMPEVSWQLGRSLNCTVKTYSTSYTLEDLDREFKAFAHAQWKAQVRSIYSLLMGSYNDIFDLFFSNCRSLFKDKKLVEYLKESSFDAVFLDPFDNCGLIVAKYFSLPSVVFARGILCHYLEEGAQCPAPLSYVPRILLGFSDAMTFKERVRNHIMHLEEHLLCHRFFKNALEIASEILQTPVTEYDLYSHTSIWLLRTDFVLDYPKPVMPNMIFIGGINCHQGKPLPMEFEAYINASGEHGIVVFSLGSMVSEIPEKKAMAIADALGKIPQTVLWRYTGTRPSNLANNTILVKWLPQNDLLGHPMTRAFITHAGSHGVYESICNGVPMVMMPLFGDQMDNAKRMETKGAGVTLNVLEMTSEDLENALKAVINDKSYKENIMRLSSLHKDRPVEPLDLAVFWVEFVMRHKGAPHLRPAAHDLTWYQYHSLDVIGFLLAVVLTVAFITFKCCAYGYRKCLGKKGRVKKAHKSKTH
Km ([10]; formation of 3-O-glucuronide): 0.32 ± 0.03 µM
Vmax ([10]; formation of 3-O-glucuronide): 1.92 ± 0.03 nmol/mg/min
Vmax/Km ([10]; formation of 3-O-glucuronide): 6000 µL/min/mg
Km ([10]; formation of 7-O-glucuronide): 3.87 ± 0.59 µM
Vmax ([10]; formation of 7-O-glucuronide): 0.87 ± 0.05 nmol/mg/min
Vmax/Km ([10]; formation of 7-O-glucuronide): 220 µL/min/mg
Km ([11]; formation of 3-O-glucuronide): 0.36 ± 0.03 µM
Vmax ([11]; formation of 3-O-glucuronide): 2.62 ± 0.05 nmol/mg/min
Vmax/Km ([11]; formation of 3-O-glucuronide): 7280 µL/min/mg
Km ([11]; formation of 7-O-glucuronide): 2.67 ± 0.56 µM
Vmax ([11]; formation of 7-O-glucuronide): 1.15 ± 0.08 nmol/mg/min
Vmax/Km ([11]; formation of 7-O-glucuronide): 430 µL/min/mg
Km ([12]; formation of 3-O-glucuronide): 0.22 ± 0.04 µM
Vmax ([12]; formation of 3-O-glucuronide): 4.60 ± 0.28 nmol/mg/min
Vmax/Km ([12]; formation of 3-O-glucuronide): 20910 µL/min/mg
Km ([12]; formation of 7-O-glucuronide): 1.50 ± 0.26 µM
Vmax ([12]; formation of 7-O-glucuronide): 2.04 ± 0.09 nmol/mg/min
Vmax/Km ([12]; formation of 7-O-glucuronide): 1360 µL/min/mg
